From PMC6550315
Where two headings read alike, the source gives them in different places.

What was measured:
[1] = target: Kif7DM (dimeric, non GFP-tagged Kif7, aa. 1–543), held on an anti-penta-HIS biosensor (human) (UniProt Q2M1P5); test: BLI
[2] = target: Kif7DM (dimeric, non GFP-tagged Kif7, aa. 1–543), held on an anti-penta-HIS biosensor (human) (UniProt Q2M1P5); test: BLI; remark: listed apart in the source
[3] = target: Kif7DM (dimeric, non GFP-tagged Kif7, aa. 1–543), held on an anti-penta-HIS biosensor (human) (UniProt Q2M1P5); test: BLI; remark: listed apart in the source
[4] = target: GTP-polymerized Taxol-stabilized microtubules (bovine tubulin) (bovine) (UniProt Q6B856); test: co-sedimentation
[5] = target: GDP-tubulin microtubule segment (GTP►GDP growth) (bovine (lab-purified from bovine brain; Cytoskeleton tubulin used interchangeably)) (UniProt Q6B856); test: TIRF microscopy
[6] = target: GMPCPP+GDP microtubule cap (bovine (lab-purified from bovine brain; Cytoskeleton tubulin used interchangeably)) (UniProt Q6B856); test: TIRF microscopy
[7] = target: GMPCPP-stabilized microtubules (GMPCPP-bound microtubule seeds) (bovine (lab-purified from bovine brain; Cytoskeleton tubulin used interchangeably)) (UniProt Q6B856); test: TIRF microscopy
[8] = target: GDP-tubulin microtubule segment (GTP►GDP growth) (bovine (lab-purified from bovine brain; Cytoskeleton tubulin used interchangeably)) (UniProt Q6B856); test: TIRF microscopy; remark: listed apart in the source
[9] = target: GMPCPP+GDP microtubule cap (bovine (lab-purified from bovine brain; Cytoskeleton tubulin used interchangeably)) (UniProt Q6B856); test: TIRF microscopy; remark: listed apart in the source
[10] = target: GMPCPP-stabilized microtubules (GMPCPP-bound microtubule seeds) (bovine (lab-purified from bovine brain; Cytoskeleton tubulin used interchangeably)) (UniProt Q6B856); test: TIRF microscopy; remark: listed apart in the source
[11] = target: GTP-polymerized Taxol-stabilized microtubules (bovine tubulin) (bovine) (UniProt Q6B856); test: co-sedimentation; remark: listed apart in the source
[12] = target: GTP-polymerized Taxol-stabilized microtubules (bovine tubulin) (bovine) (UniProt Q6B856); test: co-sedimentation; remark: listed apart in the source
[13] = target: GMPCPP-stabilized microtubules (GMPCPP-bound microtubule seeds) (bovine (lab-purified from bovine brain; Cytoskeleton tubulin used interchangeably)) (UniProt Q6B856); test: TIRF microscopy; remark: listed apart in the source
[14] = target: GDP-tubulin microtubule segment (GTP►GDP growth) (bovine (lab-purified from bovine brain; Cytoskeleton tubulin used interchangeably)) (UniProt Q6B856); test: TIRF microscopy; remark: listed apart in the source
[15] = target: GMPCPP+GDP microtubule cap (bovine (lab-purified from bovine brain; Cytoskeleton tubulin used interchangeably)) (UniProt Q6B856); test: TIRF microscopy; remark: listed apart in the source
[16] = target: GMPCPP-stabilized microtubules (GMPCPP-bound microtubule seeds) (bovine (lab-purified from bovine brain; Cytoskeleton tubulin used interchangeably)) (UniProt Q6B856); test: TIRF microscopy; remark: listed apart in the source
[17] = target: GMPCPP-stabilized microtubules (GMPCPP-bound microtubule seeds) (bovine (lab-purified from bovine brain; Cytoskeleton tubulin used interchangeably)) (UniProt Q6B856); test: TIRF microscopy; remark: listed apart in the source
[18] = target: GTPγS microtubule segment (bovine (lab-purified from bovine brain; Cytoskeleton tubulin used interchangeably)) (UniProt Q6B856); test: TIRF microscopy
[19] = target: GDP-tubulin microtubule segment (GTP►GDP growth) (bovine (lab-purified from bovine brain; Cytoskeleton tubulin used interchangeably)) (UniProt Q6B856); test: TIRF microscopy; remark: listed apart in the source
[20] = target: GMPCPP+GDP microtubule cap (bovine (lab-purified from bovine brain; Cytoskeleton tubulin used interchangeably)) (UniProt Q6B856); test: TIRF microscopy; remark: listed apart in the source
[21] = target: GMPCPP-stabilized microtubules (GMPCPP-bound microtubule seeds) (bovine (lab-purified from bovine brain; Cytoskeleton tubulin used interchangeably)) (UniProt Q6B856); test: TIRF microscopy; remark: listed apart in the source
[22] = target: GTP-polymerized Taxol-stabilized microtubules (bovine tubulin) (bovine) (UniProt Q6B856); test: co-sedimentation; remark: listed apart in the source

Molecule: soluble tubulin (α-β-tubulin heterodimer) (from UniProt Q6B856 1-445) (complex)
- Kd [1]: 1640 nM
- Kd [2]: 8.1 µM
- Kd [3]: 4.98 µM

Molecule: Kif7_(DM-L8)^KHC-GFP (Kif7 1–543 with loop L8 replaced by kinesin-1 L8) (from UniProt Q2M1P5 1-543) (domain or fragment)
- Kd [4]: 850 nM

B1: Kif7DM-GFP (dimeric Kif7, aa. 1–543, C-terminal GFP) (domain or fragment)
chain: MGLEAQRLPGAEEAPVRVALRVRPLLPKELLHGHQSCLQVEPGLGRVTLGRDRHFGFHVVLAEDAGQEAVYQACVQPLLEAFFEGFNATVFAYGQTGSGKTYTMGEASVASLLEDEQGIVPRAMAEAFKLIDENDLLDCLVHVSYLEVYKEEFRDLLEVGTASRDIQLREDERGNVVLCGVKEVDVEGLDEVLSLLEMGNAARHTGATHLNHLSSRSHTVFTVTLEQRGRAPSRLPRPAPGQLLVSKFHFVDLAGSERVLKTGSTGERLKESIQINSSLLALGNVISALGDPQRRGSHIPYRDSKITRILKDSLGGNAKTVMIACVSPSSSDFDETLNTLNYASRAQNIRNRATVNWRPEAERPPEETASGARGPPRHRSETRIIHRGRRAPGPATASAAAAMRLGAECARYRACTDAAYSLLRELQAEPGLPGAAARKVRDWLCAVEGERSALSSASGPDSGIESASVEDQAAQGAGGRKEDEGAQQLLTLQNQVARLEEENRDFLAALEDAMEQYKLQSDRLREQQEEMVELRLRLELVRP
- GFP fluorescence intensity per pixel [5]: 8.6
- GFP fluorescence intensity per pixel [6]: 37.1
- GFP fluorescence intensity per pixel [7]: 53
- GFP fluorescence intensity per pixel [8]: 14.1
- GFP fluorescence intensity per pixel [9]: 80.8
- GFP fluorescence intensity per pixel [10]: 202
- Kd [11]: 430 nM
- Kd [12]: 780 nM
- GFP fluorescence intensity per pixel [13]: 836
- GFP fluorescence intensity per pixel [14]: 216
- GFP fluorescence intensity per pixel [15]: 401
- GFP fluorescence intensity per pixel [16]: 693
- GFP fluorescence intensity at curvature |κ0|, 10 nM Kif7DM-GFP [17]: 164
- GFP fluorescence intensity at curvature |κ0|, 50 nM Kif7DM-GFP [17]: 278
- GFP fluorescence intensity at curvature |κ1|, 10 nM Kif7DM-GFP [17]: 168
- GFP fluorescence intensity at curvature |κ1|, 50 nM Kif7DM-GFP [17]: 285
- GFP fluorescence intensity at curvature |κ2|, 10 nM Kif7DM-GFP [17]: 168
- GFP fluorescence intensity at curvature |κ2|, 50 nM Kif7DM-GFP [17]: 280
- GFP fluorescence intensity at curvature |κ3|, 10 nM Kif7DM-GFP [17]: 164
- GFP fluorescence intensity at curvature |κ3|, 50 nM Kif7DM-GFP [17]: 283
- GFP fluorescence intensity per pixel [17]: 218
- GFP fluorescence intensity per pixel [18]: 511
- GFP fluorescence intensity per pixel [19]: 208
- GFP fluorescence intensity per pixel [20]: 338
- GFP fluorescence intensity per pixel [21]: 592
- Kd [4]: 540 nM
- Kd [22]: 810 nM
